In paper PMC4110039:

Key:
[1] = target: HIV-1 JR2 F673L mutant Env (trimer of gp120-gp41 heterodimers) on pseudotyped virus (HIV-1 (isolate JR2))
[2] = target: HIV-1 JR2 wild type Env (trimer of gp120-gp41 heterodimers) on pseudotyped virus (HIV-1 (isolate JR2))

Substance: C34 peptide
- IC50 of neutralization of pseudotyped virus (single cycle entry assay, TZM-bl cells); C34 acts on the NHR of gp41 [1]: 0.9 µg/mL
- IC50 of neutralization of pseudotyped virus (single cycle entry assay, TZM-bl cells); C34 acts on the NHR of gp41 [2]: 1.2 µg/mL
